Columns and labels:
[1] = molecular target: mouse IL-17RA (IL-17 receptor) on ST-2 cells (mouse) (UniProt Q60943); experiment: cell-based or functional assay
[2] = molecular target: human IL-17RA on normal human foreskin fibroblasts (HFF) (human) (UniProt Q96F46); experiment: cell-based or functional assay
[3] = molecular target: T1, IL-17RA FN1 domain fused to the Gal4 DNA binding domain (pGBKT7) (yeast, UniProt P04386 1-147, limits assumed); experiment: yeast two-hybrid, growth on -Leu/-Trp/-Ade
T1 construct: Only the FN1 domain was used
Protocol: The IL-17RA ECD, FN2, FN2/linker and FN1 domains were fused to the Ga14 DNA binding domain (BD) or activation domain (AD) in the Pgbkt7 and Pgadat7 yeast expression plasmids (BD Clontech). S. cerevisiae were transformed by standard methods, and growth on Leu-Trp-deficient plates or Leu-Trp-Ade-deficient plates was evaluated by colony counting. CARMA1 (provided by X. Lin, MD Anderson Cancer Center, Houston Tex.) was used a positive control.
To obtain the data presented Table 1, full length (FL) IL-17RA or the FN1, FN2/linker or FN2 domains were fused to the yeast Ga14 DNA binding domain (BD) or activation domain (AD) in the pGBKT7 and pGADT7 plasmids. S. cerevisiae were transformed with the indicated pairs of plasmids and growth on Leu-Trp-deficient plates (selecting for both plasmids) or Leu-Trp-Ade-deficient plates (selecting for each plasmid and an interaction) was evaluated. CARMA1 was a positive control. FL, full length. FN, fibronectin.

[4] = molecular target: T2, huIL-17.Fc (huIL17 with N-terminal flag and huFC (IgG1)) (human, UniProt Q16552 24-155); experiment: flow cytometry, huIL-17.Fc staining with anti-huIgG-APC
T2 construct: also called IL-17 fused to human Fc; not shown: human IgG1 Fc (huFC)
Protocol: Cells were incubated with M750 or M177 anti-mouse IL-17RA followed by anti-rat PE (BD Pharmigen). To prepare huIL-17.Fc, a cDNA encoding huIL17, N-terminal flag and huFC (IgG1) was amplified by PCR and cloned into the Pdc409 vector. Secreted IL17.Fc was purified from transfected COS cells over a Protein A column and its concentration determined using a human Fc ELISA. For binding, 293 cells were blocked with anti-human IL-17RA (M202) and stained with huIL17.Fc followed by anti-hulgG-APC (Jackson Immunoresearch, West Grove, Pa.). Data were analyzed on a FACSCalibur with Cell Quest software (BD Biosciences). FRET data were obtained from three channel images using the macro of LSM FRET tool software (Zeiss AIM software, per standard techniques). A minimum of 50 regions of interest at the membrane were assessed for each condition. FRET efficiencies were calculated by the NFRET method and significance determined by t-test.

Sequence of mouse IL-17RA (IL-17 receptor) on ST-2 cells (mouse) (Q60943 32-864): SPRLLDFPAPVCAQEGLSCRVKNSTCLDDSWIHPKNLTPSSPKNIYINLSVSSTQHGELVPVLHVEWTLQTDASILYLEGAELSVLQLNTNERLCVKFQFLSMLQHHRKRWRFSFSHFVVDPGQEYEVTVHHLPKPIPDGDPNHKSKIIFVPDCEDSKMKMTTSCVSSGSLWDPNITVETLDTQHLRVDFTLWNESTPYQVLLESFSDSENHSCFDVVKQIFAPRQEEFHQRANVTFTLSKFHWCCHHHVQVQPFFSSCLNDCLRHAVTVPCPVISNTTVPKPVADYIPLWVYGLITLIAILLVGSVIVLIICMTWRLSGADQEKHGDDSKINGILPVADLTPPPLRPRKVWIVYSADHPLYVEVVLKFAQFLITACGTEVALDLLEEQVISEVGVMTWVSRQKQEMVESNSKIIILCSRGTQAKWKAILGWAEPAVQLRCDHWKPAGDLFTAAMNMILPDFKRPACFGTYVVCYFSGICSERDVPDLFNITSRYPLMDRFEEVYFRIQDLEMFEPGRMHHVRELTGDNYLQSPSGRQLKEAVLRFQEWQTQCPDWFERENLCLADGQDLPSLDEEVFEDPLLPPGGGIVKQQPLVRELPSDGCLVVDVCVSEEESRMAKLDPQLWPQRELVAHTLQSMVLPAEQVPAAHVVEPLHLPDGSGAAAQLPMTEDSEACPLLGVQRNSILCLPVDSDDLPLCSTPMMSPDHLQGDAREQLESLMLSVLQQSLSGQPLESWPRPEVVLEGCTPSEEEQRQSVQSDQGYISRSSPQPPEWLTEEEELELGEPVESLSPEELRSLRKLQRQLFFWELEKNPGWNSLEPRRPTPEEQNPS
T2 sequence (Q16552 other isoform, or with tags, fused parts or gaps limits assumed): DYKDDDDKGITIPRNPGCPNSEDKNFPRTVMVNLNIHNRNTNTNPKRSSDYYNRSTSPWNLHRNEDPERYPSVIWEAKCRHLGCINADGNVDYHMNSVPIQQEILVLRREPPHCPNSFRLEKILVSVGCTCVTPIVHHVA

## muPLAD (murine PLAD construct, FN2 of mouse IL-17RA without the linker) (from UniProt Q60943 205-283) (receptor)
[1]
  IL-6 (ELISA) from ST-2 cells + IL-17A 10 ng/ml, muPLAD at 3 ug/ml: 2240 pg/mL
  IL-6 (ELISA) from ST-2 cells + IL-17A 10 ng/ml, muPLAD at 3 ug/ml (Example 9): 155 pg/mL
  IL-6 (ELISA) from ST-2 cells + IL-17A 10 ng/ml, muPLAD at 10 ug/ml: 2530 pg/mL
  IL-6 (ELISA) from ST-2 cells + IL-17A 10 ng/ml, muPLAD at 10 ug/ml (Example 9): 125 pg/mL
  IL-6 (ELISA) from ST-2 cells + IL-17A 10 ng/ml, muPLAD at 30 ug/ml: 2040 pg/mL
  IL-6 (ELISA) from ST-2 cells + IL-17A 10 ng/ml, muPLAD at 30 ug/ml (Example 9): 108 pg/mL
  IL-6 (ELISA) from ST-2 cells + IL-17A + TNFa 2 ng/ml, muPLAD at 3 ug/ml: 6980 pg/mL
  IL-6 (ELISA) from ST-2 cells + IL-17A + TNFa 2 ng/ml, muPLAD at 10 ug/ml: 6980 pg/mL
  IL-6 (ELISA) from ST-2 cells + IL-17A + TNFa 2 ng/ml, muPLAD at 30 ug/ml: 6980 pg/mL
  KC (Groα) (ELISA) from ST-2 cells + IL-17A 10 ng/ml, muPLAD at 3 ug/ml: 6190 pg/mL
  KC (Groα) (ELISA) from ST-2 cells + IL-17A 10 ng/ml, muPLAD at 10 ug/ml: 6130 pg/mL
  KC (Groα) (ELISA) from ST-2 cells + IL-17A 10 ng/ml, muPLAD at 30 ug/ml: 6100 pg/mL
  KC (Groα) (ELISA) from ST-2 cells + IL-17A + TNFa, muPLAD at 3 ug/ml: 6150 pg/mL
  KC (Groα) (ELISA) from ST-2 cells + IL-17A + TNFa, muPLAD at 10 ug/ml: 6460 pg/mL
  KC (Groα) (ELISA) from ST-2 cells + IL-17A + TNFa, muPLAD at 30 ug/ml: 6300 pg/mL

## muPLAD-L (murine PLAD/Linker construct, linker and FN2 of mouse IL-17RA) (from UniProt Q60943 184-283) (receptor)
[1]
  IL-6 (ELISA) from ST-2 cells + IL-17A 10 ng/ml, muPLAD-L at 3 ug/ml: 2710 pg/mL
  IL-6 (ELISA) from ST-2 cells + IL-17A 10 ng/ml, muPLAD-L at 3 ug/ml (Example 9): 182 pg/mL
  IL-6 (ELISA) from ST-2 cells + IL-17A 10 ng/ml, muPLAD-L at 10 ug/ml: 2790 pg/mL
  IL-6 (ELISA) from ST-2 cells + IL-17A 10 ng/ml, muPLAD-L at 10 ug/ml (Example 9): 110 pg/mL
  IL-6 (ELISA) from ST-2 cells + IL-17A 10 ng/ml, muPLAD-L at 30 ug/ml: 1880 pg/mL
  IL-6 (ELISA) from ST-2 cells + IL-17A 10 ng/ml, muPLAD-L at 30 ug/ml (Example 9): 110 pg/mL
  IL-6 (ELISA) from ST-2 cells + IL-17A + TNFa 2 ng/ml, muPLAD-L at 3 ug/ml: 7020 pg/mL
  IL-6 (ELISA) from ST-2 cells + IL-17A + TNFa 2 ng/ml, muPLAD-L at 10 ug/ml: 7040 pg/mL
  IL-6 (ELISA) from ST-2 cells + IL-17A + TNFa 2 ng/ml, muPLAD-L at 30 ug/ml: 7180 pg/mL
  KC (Groα) (ELISA) from ST-2 cells + IL-17A 10 ng/ml, muPLAD-L at 3 ug/ml: 5980 pg/mL
  KC (Groα) (ELISA) from ST-2 cells + IL-17A 10 ng/ml, muPLAD-L at 10 ug/ml: 5440 pg/mL
  KC (Groα) (ELISA) from ST-2 cells + IL-17A 10 ng/ml, muPLAD-L at 30 ug/ml: 6230 pg/mL
  KC (Groα) (ELISA) from ST-2 cells + IL-17A + TNFa, muPLAD-L at 3 ug/ml: 5750 pg/mL
  KC (Groα) (ELISA) from ST-2 cells + IL-17A + TNFa, muPLAD-L at 10 ug/ml: 5550 pg/mL
  KC (Groα) (ELISA) from ST-2 cells + IL-17A + TNFa, muPLAD-L at 30 ug/ml: 5500 pg/mL

B1: IL-17R PLAD-mod-GSS-FH (recombinant human IL-17R PLAD without the linker, second generation construct) (receptor)
chain: PNITVETLEAHQLRVSFTLWNESTHYQILLTSFPHMENHSCFEHMHHIPAPRPEEFHQRSNVTLTLRNLKGCCRHQVQIQPFFSSCLNDCLRHSATVSCPEMPDTPEPIPDGSSDYKDDDDKGSSHHHHHH
[2]
  GROα (ELISA) from HFF + 5 ng/mL huIL-17A, IL-17R PLAD-mod-GSS-FH at 0.032 ug/mL: 467 pg/mL
  GROα (ELISA) from HFF + 5 ng/mL huIL-17A, IL-17R PLAD-mod-GSS-FH at 0.16 ug/mL: 486 pg/mL
  GROα (ELISA) from HFF + 5 ng/mL huIL-17A, IL-17R PLAD-mod-GSS-FH at 0.8 ug/mL: 484 pg/mL
  GROα (ELISA) from HFF + 5 ng/mL huIL-17A, IL-17R PLAD-mod-GSS-FH at 4 ug/mL: 499 pg/mL
  GROα (ELISA) from HFF + 5 ng/mL huIL-17A, IL-17R PLAD-mod-GSS-FH at 20 ug/mL: 440 pg/mL
  GROα (ELISA) from HFF + 5 ng/mL huIL-17A, IL-17R PLAD-mod-GSS-FH at 100 ug/mL: 411 pg/mL

B2: IL-17R PLAD-GSS-FH (recombinant human IL-17R PLAD without the linker, first generation construct) (receptor)
chain: PNITVETLEAHQLRVSFTLWNESTHYQILLTSFPHMENHSCFEHMHHIPAPRPEEFHQRSNVTLTLRNLKGCCRHQVQ
[2]
  GROα (ELISA) from HFF + 5 ng/mL huIL-17A, IL-17R PLAD-GSS-FH at 0.032 ug/mL: 460 pg/mL
  GROα (ELISA) from HFF + 5 ng/mL huIL-17A, IL-17R PLAD-GSS-FH at 0.16 ug/mL: 463 pg/mL
  GROα (ELISA) from HFF + 5 ng/mL huIL-17A, IL-17R PLAD-GSS-FH at 0.8 ug/mL: 471 pg/mL
  GROα (ELISA) from HFF + 5 ng/mL huIL-17A, IL-17R PLAD-GSS-FH at 4 ug/mL: 420 pg/mL
  GROα (ELISA) from HFF + 5 ng/mL huIL-17A, IL-17R PLAD-GSS-FH at 20 ug/mL: 363 pg/mL
  GROα (ELISA) from HFF + 5 ng/mL huIL-17A, IL-17R PLAD-GSS-FH at 100 ug/mL: 300 pg/mL

B3: IL-17R PLAD-LINKER-GSS-FH (recombinant human IL-17R PLAD-linker, first generation construct) (receptor)
chain: DCEHARMKVTTPCMSSGSLWDPNITVETLEAHQLRVSFTLWNESTHYQILLTSFPHMENHSCFEHMHHIPAPRPEEFHQRSNVTLTLRNLKGCCRHQVQ
[2]
  GROα (ELISA) from HFF + 5 ng/mL huIL-17A, IL-17R PLAD-LINKER-GSS-FH at 0.032 ug/mL: 437 pg/mL
  GROα (ELISA) from HFF + 5 ng/mL huIL-17A, IL-17R PLAD-LINKER-GSS-FH at 0.16 ug/mL: 541 pg/mL
  GROα (ELISA) from HFF + 5 ng/mL huIL-17A, IL-17R PLAD-LINKER-GSS-FH at 0.8 ug/mL: 460 pg/mL
  GROα (ELISA) from HFF + 5 ng/mL huIL-17A, IL-17R PLAD-LINKER-GSS-FH at 4 ug/mL: 381 pg/mL
  GROα (ELISA) from HFF + 5 ng/mL huIL-17A, IL-17R PLAD-LINKER-GSS-FH at 20 ug/mL: 310 pg/mL
  GROα (ELISA) from HFF + 5 ng/mL huIL-17A, IL-17R PLAD-LINKER-GSS-FH at 100 ug/mL: 315 pg/mL

B4: IL-17RA FN1 domain fused to the Gal4 activation domain (pGADT7) (other, not shown: large carriers)
chain: TPSSPKNIYINLSVSSTQHGELVPVLHVEWTLQTDASILYLEGAELSVLQLNTNERLCVKFQFLSMLQHHRKRWRFSFSHFVVDPGQEYEVTVHHLPKPIPDGDPNHKSKIIFVP
notes: Only the FN1 domain was used; Species is inferred as mouse
[3]
  binding result: no binding

B5: FN2 domain construct of IL-17RA (lacking FN1 and the linker), expressed on cells (receptor)
chain: PNITVETLDTQHLRVDFTLWNESTPYQVLLESFSDSENHSCFDVVKQIFAPRQEEFHQRANVTFTLSKFHWCCHHHVQV
notes: not shown: transmembrane region, cytoplasmic part and any tag of the construct
[4]
  binding result: no binding

Reference: patent US20120009190A1 (Amgen, published 2012)
